Measured values: US20150266963A1 (ARGEN X B V, published 2015)
Read-outs that look alike come from different tables or passages of the source.

How the values were obtained:
[1] = target: T1, human CD70 expressed on the surface of cells (human, UniProt P32970 1-193); test: cell-based or functional assay
T1 sequence (looked up): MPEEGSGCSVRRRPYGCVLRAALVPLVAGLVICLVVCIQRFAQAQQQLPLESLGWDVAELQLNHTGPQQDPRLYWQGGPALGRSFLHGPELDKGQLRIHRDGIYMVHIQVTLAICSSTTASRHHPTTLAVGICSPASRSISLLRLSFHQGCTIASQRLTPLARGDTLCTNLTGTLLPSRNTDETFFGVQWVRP

[2] = target: T1, human CD70 expressed on the surface of …; test: cell-based or functional assay; remark: listed apart in the source
[3] = target: T1, human CD70 expressed on the surface of …; test: cell-based or functional assay; remark: listed apart in the source
[4] = target: T1, human CD70 expressed on the surface of …; test: flow cytometry on 786-O cells; anti-human Fc-FITC
Procedure: Fluorescence of 10,000 cells/condition was measured using a flow cytometer and the median fluorescence was plotted.

[5] = target: T2, rhesus recombinant CD70 (FLAG-TNC-rhesus CD70) (rhesus); test: inhibition ELISA; FLAG-TNC-rhesus CD70; competitor CD27-Fc
T2 construct: also called rhesus Flag-TNC-CD70
Text: In this assay, Flag-TNC-CD70 is captured by an anti-Flag mAb and binding of CD27-Fc is detected via a biotinylated anti-CD27 mAb and strep-HRP in the absence or presence of CD70 Fabs (FIGS. 2 and 3) or CD70 mAbs (FIG. 4). In FIG. 2B it can be seen that 27B3, which has an identical VH as 9D1, but contains a somewhat different light chain, seems to block binding of CD27 to CD70 more efficiently, which was in line with the better off rate of this Fab as measured on Biacore (data not shown). Table 3 indicates the blocking potency (expressed as IC50) for the various llama-human chimeric mAbs tested in the CD70 inhibition ELISA. […] FIG. 3 is a composite of an experiment testing llama CD70 Fabs for blocking activity (in the inhibition ELISA, see white bars) and for CD70 binding (binding ELISA, black bars). For the binding ELISA, Flag-TNC-CD70 is captured by an anti-Flag mAb and binding of the Fabs is detected using an anti-myc-HRP mAb, which recognizes the MYC tag fused to the C-terminus of the Fd fragment. For comparison purposes, known monoclonal antibodies to CD70 (SGN70 described in US 2010/0129362 A1, clone 1F6; and MDX69A7 described in WO2008/074004 FIGS. 5A and 5B) were tested in parallel. […] Of interest is clone 59D10, which as Fab has no blocking activity, but when converted into a chimeric IgG was antagonistic (see Table 3). […]

[6] = target: T3, recombinant human CD70 (Flag-TNC-CD70) (human, UniProt P32970 39-193); test: inhibition ELISA; Flag-TNC-CD70 captured by anti-Flag mAb; competitor CD27-Fc
T3 construct: extracellular domain; Captured by anti-Flag mAb in ELISA; as 'recombinant human CD70' immobilised on Biacore CM5 chips; TNC is for trimerisation; also called recombinant CD70; human recombinant CD70; not shown: Flag tag and TNC trimerisation domain
T3 sequence (looked up): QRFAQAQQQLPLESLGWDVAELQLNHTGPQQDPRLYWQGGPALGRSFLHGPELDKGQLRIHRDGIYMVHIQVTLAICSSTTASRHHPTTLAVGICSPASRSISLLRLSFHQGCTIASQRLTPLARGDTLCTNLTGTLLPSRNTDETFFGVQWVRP
Procedure: From selected phage transfected into TG1, individual colonies were picked randomly for growth in 96 well plates. After IPTG induction according to standard protocols periplasmic fractions (penis) containing Fabs were prepared. […] In this assay, Flag-TNC-CD70 is captured by an anti-Flag mAb and binding of CD27-Fc is detected via a biotinylated anti-CD27 mAb and strep-HRP in the absence or presence of CD70 Fabs (FIGS. 2 and 3) or CD70 mAbs (FIG. 4). In FIG. 2B it can be seen that 27B3, which has an identical VH as 9D1, but contains a somewhat different light chain, seems to block binding of CD27 to CD70 more efficiently, which was in line with the better off rate of this Fab as measured on Biacore (data not shown). Table 3 indicates the blocking potency (expressed as IC50) for the various llama-human chimeric mAbs tested in the CD70 inhibition ELISA. […] FIG. 3 is a composite of an experiment testing llama CD70 Fabs for blocking activity (in the inhibition ELISA, see white bars) and for CD70 binding (binding ELISA, black bars). For the binding ELISA, Flag-TNC-CD70 is captured by an anti-Flag mAb and binding of the Fabs is detected using an anti-myc-HRP mAb, which recognizes the MYC tag fused to the C-terminus of the Fd fragment. For comparison purposes, known monoclonal antibodies to CD70 (SGN70 described in US 2010/0129362 A1, clone 1F6; and MDX69A7 described in WO2008/074004 FIGS. 5A and 5B) were tested in parallel. […] Of interest is clone 59D10, which as Fab has no blocking activity, but when converted into a chimeric IgG was antagonistic (see Table 3). Amino acid sequences of the VH and VL domains of binding and blocking llama-derived Fab clones are shown elsewhere herein (Tables 6-9).

[7] = target: T3, recombinant human CD70 (Flag-TNC-CD70); test: as above; remark: listed apart in the source
How it was run: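 Flag-TNC-CD70 captured by anti-Flag mAb, then incubated with CD27-Fc with or without titrated Fabs (periplasmic extracts) or chimeric mAbs. Bound CD27-Fc detected via biotinylated anti-CD27 mAb and strep-HRP, and blocking potency expressed as IC50.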

IC50, IL-8 secretion in Raji / HT1080-CD27 co-culture assay [1]: 0.033 nM
IC50 (ng/ml), IL-8 secretion in Raji / HT1080-CD27 co-culture assay [2]: 5 ng/mL
Raji co-culture assay IC50 relative to 27B3 [3]: 1 fold of 27B3
EC50 [4]: 0.24 nM
IC50 [5]: 0.15 mg/L
IC50 [6]: 0.25 nM
IC50 [7]: 0.038 mg/L
B1: 27B3 chimeric llama-human mAb (antibody, human IgG1, V domains shown)
VH: EVQLVESGGGLVQPGGSLRLSCAASGFTFSVYYMNWVRQAPGKGLEWVSDINNEGGTTYYADSVKGRFTISRDNAKNTLTLQMNSLKPEDTALYYCVRDAGYSNHVPIFDSWGQGTQVIVAS
VL: QAVVTQEPSLTVSPGGTVTLTCGLKSGSVTSTNFPTWYQQTPGQAPRLLIYNTNTRHSGVPSRFSGSISENKAALTITGAQPEDEAEYFCALFISNPSVEFGGGTQLTVLS
notes: also called SIMPLE antibody 27B3; mAb 27B3
